Source: the RNAGym collection of RNA variant scans (doi:10.1093/molbev/msab373)

B1: Azoarcus group I ribozyme (parent)
chain: GUGCCUUGCGCCGGGAAACCACGCAAGGGAUGGUGUCAAAUUCGGCGAAACCUAAGCGCCCGCCCGGGCGUAUGGCAACGCCGAGCCAAGCUUCGGCGCCUGCGCCGAUGAAGGUGUAGAGACUAGACGGCACCCACCUAAGGCAAACGCUAUGGUGAAGGCAUAGUCCAGGGAGUGGCGAAAGUCACACAAACCGG

Variants of: B1
Experiment: reverse-splicing fitness (ratio to wild type); higher = more active; in vitro selection; Mg2+ level not given
Summary of the method: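 An in vitro group I ribozyme library with randomized positions was T7-transcribed and gel-purified. In triplicate, 10 pmol RNA in EPPS pH 7.5 was reacted with 50 pmoles of a 30-nt RNA substrate for 1 h at 37 °C across several added MgCl2 levels (1–48 mM), then stopped with EDTA. Products were reverse transcribed from a substrate-complementary primer, PCR-amplified and sequenced (HiSeq 4000). Fitness is a variant's read proportion after selection over that before, normalised to wild type.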

Compared with C82U A111C A120G A145G C150G U176A, C82U A111C A120G A145G C150G U176G is lower in reverse-splicing fitness: 0.00693 for the first, 0.00607 for the second.

Compared with C82U A111C A120G A145G C150G U176C, C82U A111C A120G C150A C169A U176A is higher in reverse-splicing fitness: 0.0103 for the first, 0.0163 for the second.

First: C82U A111C A120G C150A C169A U176G
Second: C82U A111C A120G C150A C169A U176C
The reverse-splicing fitness of the first is lower: 0.00529 for the first, 0.0186 for the second.

First: C82U A111C A120G A145G C150A C169U
Second: C82U A111C A120G A145G C150A C169A
The reverse-splicing fitness of the first is lower: 0.00786 for the first, 0.00989 for the second.

Going from C82U A111C A120G A145G C150A C169G to C82U A111C A120G A145G C150U U176A, the reverse-splicing fitness rises from 0.00809 to 0.00886.

Compared with C82U A111C A120G A145G C150U U176G, C82U A111C A120G A145G C150U U176C is higher in reverse-splicing fitness: 0.00547 for the first, 0.0169 for the second.

Going from C82U A111C A120G A145U C150U to C82U A111C A120G A145U C150A, the reverse-splicing fitness falls from 0.0111 to 0.00775.

Compared with C82U A111C A120G A145U C150G, C82U A111C A120G C169U U176G is lower in reverse-splicing fitness: 0.00658 for the first, 0.00376 for the second.

First: C82U A111C A120G C169U U176C
Second: C82U A111C A120G C169U U176A
The reverse-splicing fitness of the first is lower: 0.0142 for the first, 0.0158 for the second.

Going from C82U A111C A120G A145C C150U C169U U176C to C82U A111C A120G A145C C150U C169U U176A, the reverse-splicing fitness rises from 0.0072 to 0.0137.

Compared with C82U A111C A120G A145C C150U C169U U176G, C82U A111C A120G A145U U176G is higher in reverse-splicing fitness: 0.00401 for the first, 0.00452 for the second.

Compared with C82U A111C A120G A145U U176A, C82U A111C A120G A145U U176C is higher in reverse-splicing fitness: 0.0148 for the first, 0.0192 for the second.

First: C82U A111C A120G A145C C150A C169A U176A
Second: C82U A111C A120G A145C C150A C169A U176C
The reverse-splicing fitness of the first is higher: 0.011 for the first, 0.00587 for the second.

Compared with C82U A111C A120G A145C C150A C169A U176G, C82U A111C A120U A145C C169G is lower in reverse-splicing fitness: 0.00467 for the first, 0.00298 for the second.

Going from C82U A111C A120U A145C C169A to C82U A111C A120U A145C C169U, the reverse-splicing fitness rises from 0.00236 to 0.0039.

First: C82U A111C A120U A145C C150G C169A
Second: C82U A111C A120U A145C C150G C169U
The reverse-splicing fitness of the first is lower: 0.00271 for the first, 0.00396 for the second.

Compared with C82U A111C A120U A145C C150G C169G, C82U A111C A120U A145C C150G U176G is lower in reverse-splicing fitness: 0.00351 for the first, 0.00239 for the second.

First: C82U A111C A120U A145C C150G U176A
Second: C82U A111C A120U A145C C150G U176C
The reverse-splicing fitness of the first is lower: 0.00275 for the first, 0.00485 for the second.

Going from C82U A111C A120G A145G C150U C169U U176C to C82U A111C A120G A145G C150U C169U U176G, the reverse-splicing fitness falls from 0.0131 to 0.00449.

Compared with C82U A111C A120G A145G C150U C169U U176A, C82U A111C A120G A145U C150A U176A is lower in reverse-splicing fitness: 0.0152 for the first, 0.0119 for the second.

Compared with C82U A111C A120G A145U C150A U176G, C82U A111C A120G A145U C150A U176C is higher in reverse-splicing fitness: 0.00424 for the first, 0.0144 for the second.

Going from C82U A111C A120G A145G C150U C169G to C82U A111C A120G A145G C150U C169A, the reverse-splicing fitness rises from 0.00984 to 0.0103.

Going from C82U A111C A120G A145G C150U C169U to C82U A111C A120G C150G C169U, the reverse-splicing fitness falls from 0.00958 to 0.00766.

Compared with C82U A111C A120G C150G C169G, C82U A111C A120G C150G C169A is higher in reverse-splicing fitness: 0.00667 for the first, 0.00813 for the second.

First: C82U A111C A120G A145C C150A C169G U176G
Second: C82U A111C A120G A145C C150A C169G U176A
The reverse-splicing fitness of the first is lower: 0.00512 for the first, 0.0204 for the second.

First: C82U A111C A120G A145C C150A C169G U176C
Second: C82U A111C A120G A145U C150A C169A U176C
The reverse-splicing fitness of the first is higher: 0.0127 for the first, 0.00775 for the second.

First: C82U A111C A120G A145U C150A C169A U176A
Second: C82U A111C A120G A145U C150A C169A U176G
The reverse-splicing fitness of the first is higher: 0.0102 for the first, 0.00481 for the second.

Compared with C82U A111C A120U A145G C150A, C82U A111C A120G C150G C169U U176C is higher in reverse-splicing fitness: 0.00865 for the first, 0.0121 for the second.

First: C82U A111C A120G C150G C169U U176A
Second: C82U A111C A120G C150G C169U U176G
The reverse-splicing fitness of the first is higher: 0.00853 for the first, 0.00505 for the second.

Compared with C82U A111C A120G A145G C150G C169G U176G, C82U A111C A120G A145G C150G C169G U176C is higher in reverse-splicing fitness: 0.00526 for the first, 0.0114 for the second.

Going from C82U A111C A120G A145G C150G C169G U176A to C82U A111C A120G A145G C150G C169G, the reverse-splicing fitness falls from 0.00921 to 0.0068.

Compared with C82U A111C A120G A145G C150G C169U, C82U A111C A120G A145G C150G C169A is higher in reverse-splicing fitness: 0.00832 for the first, 0.0087 for the second.

First: C82U A111C A120G C150A C169G U176A
Second: C82U A111C A120G C150A C169G U176C
The reverse-splicing fitness of the first is lower: 0.0168 for the first, 0.0202 for the second.

Compared with C82U A111C A120G C150A C169G U176G, C82U A111C A120G C169G is higher in reverse-splicing fitness: 0.00479 for the first, 0.0104 for the second.

First: C82U A111C A120G C169U
Second: C82U A111C A120G C169A
The reverse-splicing fitness of the first is lower: 0.0077 for the first, 0.00844 for the second.

Compared with C82U A111C A120G A145U C150G C169U U176G, C82U A111C A120G A145U C150G C169U U176A is higher in reverse-splicing fitness: 0.00419 for the first, 0.00881 for the second.

Going from C82U A111C A120G A145U C150G C169U U176C to C82U A111C A120G A145G C150U C169G U176G, the reverse-splicing fitness falls from 0.0106 to 0.00467.

First: C82U A111C A120G A145G C150U C169G U176A
Second: C82U A111C A120G A145G C150U C169G U176C
The reverse-splicing fitness of the first is lower: 0.0112 for the first, 0.0159 for the second.

First: C82U A111C A120G A145G C150A C169U U176C
Second: C82U A111C A120G A145G C150A C169U U176G
The reverse-splicing fitness of the first is higher: 0.0153 for the first, 0.00519 for the second.

Compared with C82U A111C A120G A145G C150A C169U U176A, C82U A111C A120U A145G C150A C169G is lower in reverse-splicing fitness: 0.0158 for the first, 0.00517 for the second.

First: C82U A111C A120U A145G C150A C169A
Second: C82U A111C A120C U176G
The reverse-splicing fitness of the first is higher: 0.00616 for the first, 0.00517 for the second.

Compared with C82U A111C A120C U176A, C82U A111C A120C U176C is higher in reverse-splicing fitness: 0.0154 for the first, 0.0215 for the second.
